Experimental data taken from patent US20190194268A1 (DONALD DANFORTH PLANT SCIENCE CENTER, published 2019).

Experiments:
[1] = system: F. graminearum PH-1; type: cell-based, Fusarium graminearum; conditions: γ-core motif variants
[2] = system: F. graminearum; type: cell-based, Fusarium graminearum; conditions: γ-core motif variants

B1: MtDef5FL1_V1 (other)
chain: KLCQAASTTWSGPCLNTGNCKRQCINVEHATFGACAAQGFGFACFCYKKCAPKKVEPKLCEAASKTWSGPCLISGNCKRQCINVEHATSGACAAQGIGFACFCKKKC
notes: Alanine variant expressed in P. pastoris; also called MtDef5FL1 γ-core motif variant V1
reduction in antifungal activity against F. graminearum relative to wild-type MtDef5FL1 [1]: 4 fold | ability to permeabilize the plasma membrane (SG uptake) compared with wild-type MtDef5FL1 [2]: lost its ability to permeabilize the fungal plasma membrane almost completely
